Earlier results, collected in publication PMC2752191.

Key:
[1] = molecular target: Bax peptide (UniProt Q07812)
[2] = molecular target: Bak peptide (UniProt Q16611)
[3] = molecular target: Beclin1 peptide (UniProt Q14457)
Sequence of Beclin1 peptide (Q14457 107-130): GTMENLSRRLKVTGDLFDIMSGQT

Sequence of vBcl-2 (P89884 whole entry): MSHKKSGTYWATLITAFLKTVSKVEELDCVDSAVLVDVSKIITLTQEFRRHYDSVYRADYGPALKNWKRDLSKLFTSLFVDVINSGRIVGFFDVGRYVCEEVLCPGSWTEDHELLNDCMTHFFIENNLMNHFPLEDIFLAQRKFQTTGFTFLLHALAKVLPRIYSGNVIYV
Sequence of Bax peptide (Q07812 55-74): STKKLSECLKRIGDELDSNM

## vBcl-2 (from UniProt P89884)
[1]
  Kd: 0.69 µM
[2]
  Kd: 0.076 µM
[3]
  Kd: 0.04 µM
